Experimental data from PMC3616719.

Columns and labels:
Assay in all cases: co-sedimentation
[1] = biological target: Bombyx mori ribosomal protein P0 (full-length) (Bombyx mori)
[2] = biological target: P0mutI (P0 with F215Q/V222Q in helix I) (Bombyx mori)
[3] = biological target: P0mutII (P0 with I241Q/L248Q in helix II) (Bombyx mori)

P1–[32P]P2 heterodimer (complex)
stoichiometry N (copies of P2 per 50S particle) [1]: 2.22 | stoichiometry N (copies of P2 per 50S particle) [2]: 1.04 | stoichiometry N (copies of P2 per 50S particle) [3]: 1.14
